Experimental data taken from paper PMC11326307 (bioRxiv, 2024).

Tests used:
[1] = molecular target: T1, Snu23-DHFR (S. cerevisiae, UniProt Q12368 1-194, Cy5-TMP fluorophore bound to the DHFR tag); experiment: colocalization single molecule spectroscopy
T1 sequence (looked up): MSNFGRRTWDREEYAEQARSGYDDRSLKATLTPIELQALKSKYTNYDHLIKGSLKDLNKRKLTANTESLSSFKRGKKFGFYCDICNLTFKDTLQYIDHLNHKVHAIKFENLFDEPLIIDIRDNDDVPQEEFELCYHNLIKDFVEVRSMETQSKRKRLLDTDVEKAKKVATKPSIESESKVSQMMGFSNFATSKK

[2] = molecular target: T2, Spp381-DHFR (S. cerevisiae, UniProt P38282 1-291, Cy5-TMP fluorophore bound to the DHFR tag); experiment: colocalization single molecule spectroscopy
T2 sequence (looked up): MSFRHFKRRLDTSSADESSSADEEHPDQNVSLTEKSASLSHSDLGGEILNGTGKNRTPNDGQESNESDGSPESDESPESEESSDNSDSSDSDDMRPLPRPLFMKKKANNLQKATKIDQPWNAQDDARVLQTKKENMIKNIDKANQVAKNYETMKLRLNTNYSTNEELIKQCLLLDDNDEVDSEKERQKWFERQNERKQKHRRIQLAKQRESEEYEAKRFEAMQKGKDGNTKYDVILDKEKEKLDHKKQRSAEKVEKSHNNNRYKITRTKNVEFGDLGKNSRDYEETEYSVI

- event pairs (of those arriving together) with simultaneous release [1]: 77%
- event pairs with simultaneous arrival at the pre-mRNA [1]: 91%
- event pairs (of those arriving together) with simultaneous release [2]: 77%
- event pairs with simultaneous arrival at the pre-mRNA [2]: 91%
B1: Prp38-SNAP (natural protein)
chain: MAVNEFQVESNISPKQLNNQSVSLVIPRLTRDKIHNSMYYKVNLSNESLRGNTMVELLKVMIGAFGTIKGQNGHLHMMVLGGIEFKCILMKLIEIRPNFQQLNFLLNVKNENGFDSKYIIALLLVYARLQYYYLNGNNKNDDDENDLIKLFKVQLYKYSQHYFKLKSFPLQVDCFAHSYNEELCIIHIDELVDWLATQDHIWGIPLGKCQWNKIYNSDEESSSSESESNGDSEDDNDTSSES
modifications: SNAP-Surface 549 dye (SNAP-DY549) on the SNAP tag
